From paper PMC10653379

Target: eIF3a-HA (Trypanosoma brucei (endogenous in procyclic form strain 29-13))
Experiment: proximity ligation

## DRBD18 (natural protein)
  PLA dots per cell (dots per cell): 8
